Biological target: gp160 (precursor protein to gp120/gp41) expressed on CHO cells (HIV (strain ))
Test: cell-based or functional assay

B1: His-tagged C-peptide C37-H6 (peptide)
peptide: GGHTTWMEWDREINNYTSLIHSLIEESQNQQEKNEQELLGGHHHHHH
  IC50 in the cell-cell fusion assay: ~1 nM

Source: patent US7053179 (WHITEHEAD INSTITUTE FOR BIOMEDICAL RESEARCH, dated 2006)
